{"source": "the supplement of paper PMC10724198", "note": "± gives the standard deviation of the averaged measurements.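 Note: PSI is a weighted mean of sequencing reads over stability bins, variants kept only with over 10 reads, mCherry proximal and sfGFP distal, peptide attached via GGGS linker.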", "data": [{"test_system": "Saccharomyces cerevisiae", "assay": "protein stability index of tFT-peptide fusion (C-terminal peptide) (PSI (0-1 scale)); higher = more stable (slower turnover)", "settings": "genetic background: wild type; temperature: 30 C", "values": [{"sequence": "WGTGGRRGVGHV", "protein stability index": "0.709 ± 0.066"}, {"sequence": "QSILGLVERVIK", "protein stability index": "0.643 ± 0.032"}, {"sequence": "SGKIDKGAIAIS", "protein stability index": "0.663 ± 0.049"}, {"sequence": "CGTVVISGIVWR", "protein stability index": "0.647 ± 0.04"}, {"sequence": "PPLSGNLPCFRF", "protein stability index": "0.713 ± 0.03"}, {"sequence": "VGDPHPIMQSLL", "protein stability index": "0.773 ± 0.049"}, {"sequence": "KYISKKKKEKKK", "protein stability index": "0.684 ± 0.06"}, {"sequence": "LSSPTHTPHPPS", "protein stability index": "0.701 ± 0.0097"}, {"sequence": "LLFDQTRIGMDV", "protein stability index": "0.675 ± 0.038"}, {"sequence": "WDGWPTRSGGTG", "protein stability index": "0.738 ± 0.023"}, {"sequence": "GLPSLHGTFRLS", "protein stability index": "0.69 ± 0.0077"}, {"sequence": "VHPRFSFGPHFV", "protein stability index": "0.7027 ± 0.00094"}, {"sequence": "LSFSSLYFPSLC", "protein stability index": "0.651 ± 0.081"}, {"sequence": "RYASSRTLFAAV", "protein stability index": "0.672 ± 0.069"}, {"sequence": "SWVGHGIPPWHM", "protein stability index": "0.729 ± 0.027"}, {"sequence": "RILPPPPPPSSR", "protein stability index": "0.754 ± 0.026"}, {"sequence": "YRIWFSSFLHPT", "protein stability index": "0.741 ± 0.18"}, {"sequence": "WGGGPGLRVVGG", "protein stability index": "0.731 ± 0.026"}, {"sequence": "SVSPSPPSPHLR", "protein stability index": "0.688 ± 0.011"}, {"sequence": "CSVPPPLPPTTF", "protein stability index": "0.683 ± 0.073"}, {"sequence": "PAPLPPPAPSST", "protein stability index": "0.69 ± 0.02"}, {"sequence": "PGRFVVGAGRED", "protein stability index": "0.686 ± 0.024"}, {"sequence": "GSAACPVRGRFF", "protein stability index": "0.639 ± 0.095"}, {"sequence": "KGTKIGRPVRVI", "protein stability index": "0.689 ± 0.016"}, {"sequence": "LVLSGSAFFYLG", "protein stability index": "0.666 ± 0.029"}, {"sequence": "IGGLAGFGSALT", "protein stability index": "0.759 ± 0.12"}, {"sequence": "FFLPPPPPPPPL", "protein stability index": "0.677 ± 0.015"}, {"sequence": "SCLSLALYASHF", "protein stability index": "0.56 ± 0.033"}, {"sequence": "PSRPTLLTPLSP", "protein stability index": "0.695 ± 0.045"}, {"sequence": "SLPPPSPSPSLS", "protein stability index": "0.649 ± 0.034"}, {"sequence": "WLGAYVRAWSVA", "protein stability index": "0.533 ± 0.0011"}, {"sequence": "LPAPPPHPLSPV", "protein stability index": "0.7161 ± 0.0063"}, {"sequence": "LVHPPPPLLPPA", "protein stability index": "0.6 ± 0.018"}, {"sequence": "TYVSKCRLYEPA", "protein stability index": "0.644 ± 0.011"}, {"sequence": "GYARESERFGIH", "protein stability index": "0.694 ± 0.011"}, {"sequence": "FGLPPGNWSSGH", "protein stability index": "0.782 ± 0.028"}, {"sequence": "RNTIKMKENKRI", "protein stability index": "0.643 ± 0.042"}, {"sequence": "VMSGPSGARRIW", "protein stability index": "0.701 ± 0.055"}, {"sequence": "FGSCVVVRRVGF", "protein stability index": "0.619 ± 0.056"}, {"sequence": "GVEGAEFVEAGT", "protein stability index": "0.699 ± 0.041"}, {"sequence": "TRIRLQKNVITL", "protein stability index": "0.683 ± 0.014"}, {"sequence": "PSSPIFPFSSLP", "protein stability index": "0.599 ± 0.15"}, {"sequence": "PPPPPPSPLTLP", "protein stability index": "0.775 ± 0.086"}, {"sequence": "FYRTRQSASPNV", "protein stability index": "0.688 ± 0.046"}, {"sequence": "AAWSGGGAGCWT", "protein stability index": "0.708 ± 0.041"}, {"sequence": "TRCKRNETCTSG", "protein stability index": "0.669 ± 0.046"}, {"sequence": "PSPSSPLPPPPP", "protein stability index": "0.794 ± 0.035"}, {"sequence": "TQTLPPPLPPLL", "protein stability index": "0.675 ± 0.02"}, {"sequence": "LSLPSPRPPPSP", "protein stability index": "0.713 ± 0.063"}, {"sequence": "DGVRGDVVTGYL", "protein stability index": "0.7131 ± 0.0057"}, {"sequence": "MGKEELDKKDEG", "protein stability index": "0.625 ± 0.032"}, {"sequence": "KDINNQKKETQR", "protein stability index": "0.683 ± 0.047"}, {"sequence": "PYKASGLAGCAV", "protein stability index": "0.697 ± 0.008"}, {"sequence": "ERGGGRRRLSNA", "protein stability index": "0.656 ± 0.062"}, {"sequence": "NIKLKVCKEEMR", "protein stability index": "0.5706 ± 0.0012"}, {"sequence": "VSVSSFCVLQSC", "protein stability index": "0.547 ± 0.008"}, {"sequence": "YILSSFPSCLVL", "protein stability index": "0.64 ± 0.034"}, {"sequence": "YKGGDEVKTKKK", "protein stability index": "0.656 ± 0.035"}, {"sequence": "PTLPPPPRPPAP", "protein stability index": "0.657 ± 0.016"}, {"sequence": "KIKKRRKKDNKR", "protein stability index": "0.7145 ± 0.0013"}, {"sequence": "GAGGAGAGAGGG", "protein stability index": "0.639 ± 0.0092"}, {"sequence": "AWGGSWWSLGGM", "protein stability index": "0.6715 ± 0.0056"}, {"sequence": "GGSRRGLGAAGE", "protein stability index": "0.671 ± 0.022"}, {"sequence": "FPDPTPNLRPPP", "protein stability index": "0.636 ± 0.034"}, {"sequence": "NSVWPGYPCTHP", "protein stability index": "0.639 ± 0.03"}, {"sequence": "SVCSRVLILSPF", "protein stability index": "0.657 ± 0.068"}, {"sequence": "EGGGGGPGDARR", "protein stability index": "0.663 ± 0.025"}, {"sequence": "PRPPANILPSAP", "protein stability index": "0.713 ± 0.07"}, {"sequence": "RLTDPHWALIQS", "protein stability index": "0.839 ± 0.2"}, {"sequence": "CWGLRVMGGTGR", "protein stability index": "0.702 ± 0.013"}, {"sequence": "STIIKLCDCYKM", "protein stability index": "0.7 ± 0.11"}, {"sequence": "LLTGVPRFSLDS", "protein stability index": "0.683 ± 0.014"}, {"sequence": "ARWQALTHLIVL", "protein stability index": "0.6151 ± 0.0051"}, {"sequence": "FDPTGPIGMRPT", "protein stability index": "0.653 ± 0.0017"}, {"sequence": "SSPPTPPFPPPP", "protein stability index": "0.7044 ± 0.00099"}, {"sequence": "PLPSSSTRSTSP", "protein stability index": "0.714 ± 0.013"}, {"sequence": "PPLPPAPLPLPT", "protein stability index": "0.639 ± 0.051"}, {"sequence": "GGRGWVGEMGGR", "protein stability index": "0.784 ± 0.053"}, {"sequence": "VCRCWGGKGQDS", "protein stability index": "0.71 ± 0.012"}, {"sequence": "PPPPLVPLPASP", "protein stability index": "0.688 ± 0.072"}, {"sequence": "GGSGGLGEQGHR", "protein stability index": "0.76 ± 0.051"}, {"sequence": "QNQTYQKQKSKE", "protein stability index": "0.71 ± 0.068"}, {"sequence": "VDSPFPTPLPLI", "protein stability index": "0.685 ± 0.087"}, {"sequence": "LVSGCLCRKVLV", "protein stability index": "0.531 ± 0.0017"}, {"sequence": "VPSLAVPPEGSV", "protein stability index": "0.678 ± 0.06"}, {"sequence": "RTPLPPPRPSTY", "protein stability index": "0.719 ± 0.049"}, {"sequence": "CPIKSLLPGSFA", "protein stability index": "0.693 ± 0.03"}, {"sequence": "KQKLEGTIIREL", "protein stability index": "0.674 ± 0.024"}, {"sequence": "HTKHSQIIKHQS", "protein stability index": "0.641 ± 0.03"}, {"sequence": "PAHSLPPPPPPP", "protein stability index": "0.702 ± 0.041"}, {"sequence": "AARRPARACGGQ", "protein stability index": "0.632 ± 0.025"}, {"sequence": "TCTDTCIRGSRL", "protein stability index": "0.77 ± 0.033"}, {"sequence": "YKSKQKAQQKAK", "protein stability index": "0.64 ± 0.13"}, {"sequence": "PPPPLSLPPVPL", "protein stability index": "0.736 ± 0.012"}, {"sequence": "QTKEGSDRHRSS", "protein stability index": "0.748 ± 0.015"}, {"sequence": "QRQPPEACPKNS", "protein stability index": "0.747 ± 0.01"}, {"sequence": "LHKAATADPPRV", "protein stability index": "0.711 ± 0.02"}, {"sequence": "PKRHLTFLPRGV", "protein stability index": "0.662 ± 0.036"}, {"sequence": "IENREVNIVERT", "protein stability index": "0.686 ± 0.011"}, {"sequence": "SMDISYLISFQR", "protein stability index": "0.7426 ± 0.0049"}, {"sequence": "KMGTEEGRVWVG", "protein stability index": "0.651 ± 0.054"}]}]}
